Reference: US20090325867A1, “RECEPTOR-SPECIFIC TUMOUR NECROSIS FACTOR-RELATED APOPTOSIS-INDUCING LIGAND (TRAIL) VARIANTS” (MEDICAL RESEARCH COUNCIL, priority 2005, published 2009)

Assays:
primary MCL cells = assay: Apoptosis in freshly isolated primary MCL cells with or without depsipeptide pre-treatment; assay type: cell-based, human; conditions: spontaneous apoptosis 23.4±2.9%
Method: Cell lines were also pre-incubated for 30 min with a TRAIL-R1 blocking Ab and a TRAIL-R2 neutralizing Ab from Alexis and R&D systems, respectively, prior to exposure to TRAIL. Freshly isolated cells from patients with MCL were isolated, purified and incubated with different forms of TRAIL as described above for CLL cells. Samples were either analyzed immediately for apoptosis or stored at −80° C. for subsequent Western blotting. Other methods and reagents were as described (Inoue (2004 Cell Death Differ 11 Suppl 2, S193-206); MacFarlane et al., 2005 ibid).
(§1) Apoptosis was quantified by phosphatidylserine (PS) externalization in the presence of propidium iodide as described (MacFarlane et al., 2002 ibid.). Samples for Western blot analysis were prepared and caspase processing detected as described (Inoue et al., 2004 ibid.; MacFarlane et al., 2005 ibid.).
We also obtained three samples from patients with mantle cell lymphoma (MCL), an incurable and aggressive disease that accounts for ˜6% of all non-Hodgkin's lymphoma. There are no standard treatments for MCL and the prognosis is very poor particularly for the blastoid variant. MCL cells were isolated and exposed to the different forms of TRAIL after pre-treatment for 16 h with depsipeptide (5 nM).

Jurkat cells [1] = assay: Caspase-8 and -3 processing by Western blot in Jurkat cells; assay type: cell-based; conditions: FIG. 1D
Method: (§2) Cells were also exposed to HGS-ETR1 or HGSETR2 (1 μg ml^−1). C: Ramos or Jurkat cells were pre-incubated for 30 min either alone or with TRAIL-R1 blocking Ab or TRAIL-R2 neutralizing Ab (5 μg ml^−1). […] D: Ramos and Jurkat cells were exposed to wt TRAIL or TRAIL mutants as described above and processing of caspase-3 and -8 determined by Western blot analysis. The asterisk indicates a non-specific band. The lower panel of the blot for detection of the caspase-8 p18 subunit was exposed for twice as long as the upper panel. Apoptosis was assessed by phosphatidylserine externalization and results expressed as the Means±SEM of at least 3 separate determinations.
as §1
(§3) To confirm that the mutants were inducing apoptosis, we examined their effects on the processing of caspase-8, the apical caspase in death receptor-induced apoptosis and caspase-3, an effector caspase.

[2] = test system: TRAIL DISC in Jurkat cells; assay: DISC analysis with biotinylated TRAIL in Jurkat cells; assay type: cell-based; conditions: biotinylated ligand 500 ng ml^−1, 30 min
Method: (§4) After exposure of the cells for 30 min, DISC complexes were isolated and analyzed for the indicated proteins by Western blotting. To provide an unstimulated receptor control (u/s), biotinylated wt or mutant TRAIL was added to lysate from untreated cells. C: Freshly isolated cells from patients with CLL were incubated for 16 h either alone or in the presence of depsipeptide (10 nM). […] The different symbols used indicate data from six individual patients and the solid line indicates the Mean.
(§5) Ramos or Jurkat cells (5×10^7 cells per treatment) were exposed to biotin-tagged recombinant His-TRAIL (biotinylated TRAIL) or one of its mutant forms (500 ng ml^−1) for 30 min and then DISC formation assessed as described previously (MacFarlane et al., 2002 ibid.).

primary CLL cells = assay: Apoptosis in freshly isolated CLL cells after depsipeptide; assay type: cell-based, human; conditions: depsipeptide 10 nM 16 h, then 6 h ligand or antibody, FIG. 2C
Method: as §4
(§6) Ramos, an Epstein-Barr virus-negative Burkitt's lymphoma cell line, and Jurkat T cells (clone E6-1) were cultured as described (MacFarlane et al (2005 Cell Death and Differentiation vol 12 pages 773-782)). Blood samples were obtained from CLL patients, with patient consent and local ethical committee approval and CLL cells purified as described (MacFarlane et al (2002 Oncogene 21, 6809-6818). Cells were incubated for 16 h with depsipeptide (10 nM), provided by Dr. E. Sausville (NCI, USA). Cells were then cultured for a further 6 h with either HGSETR1 or HGS-ETR2, agonistic mAbs to TRAIL-R1 or -R2, respectively (Human Genome Sciences, Rockville, Md.), His-TRAIL-LE (a recombinant TRAIL with low endotoxin—Alexis Corporation, Nottingham, UK), His-TRAIL, a similar form of human recombinant TRAIL (MacFarlane et al (1997 J Biol Chem 272, 25417-25420)) but not further purified to reduce endotoxin levels or a mutant form of His-TRAIL as described (MacFarlane et al., 2005 ibid.). Cell lines were also pre-incubated for 30 min with a TRAIL-R1 blocking Ab and a TRAIL-R2 neutralizing Ab from Alexis and R&D systems, respectively, prior to exposure to TRAIL. Freshly isolated cells from patients with MCL were isolated, purified and incubated with different forms of TRAIL as described above for CLL cells. Samples were either analyzed immediately for apoptosis or stored at −80° C. for subsequent Western blotting. Other methods and reagents were as described (Inoue (2004 Cell Death Differ 11 Suppl 2, S193-206); MacFarlane et al., 2005 ibid).
as §1

Ramos cells [3] = assay: Apoptosis by phosphatidylserine (PS) externalization in Ramos cells; assay type: cell-based; conditions: for % PS+ cells, Ramos: 4 h exposure, 500 ng ml^−, Mean ± SEM of at least three determinations; for ability to induce apoptosis in Ramos cells (in words): PS externalization, compared with wt TRAIL
Method: as §2, §6, §1
Ramos and Jurkat T cells (clone E6-1) were cultured as described (MacFarlane et al, 2005 ibid.). The breast tumour cell line, MCF-7 (clone F43) was cultured as described previously (MacFarlane et al., 2000 J. Cell Biol. 148, 1239-1254). Cells were cultured for either 4 h (Ramos and Jurkat) or 6 h (MCF-7) with His-TRAIL (MacFarlane et al, 1997 J Biol Chem 272, 25417-25420), HGS-ETR1 or HGS-ETR2 (Human Genome Sciences), or a mutant form of His-TRAIL (MacFarlane et al, 2005 ibid.). Samples were analyzed for apoptosis, Western blotting, or TRAIL DISC activation as described (MacFarlane et al, 2005 ibid.; MacFarlane et al. 2002 Oncogene 21, 6809-6818). Mutants of His-TRAIL (residues 95-281) were generated using the Quik-Change site-directed mutagenesis kit (Stratagene, Calif.), confirmed by DNA sequencing, expressed in E. coli and purified as described (MacFarlane et al, 1997 ibid.). For siRNA targeting of TRAIL-R1/-R2, MCF-7 cells were seeded into six-well plates immediately prior to effectene-mediated RNAi transfection with either a negative control siRNA (30 nM, Ambion, #4611), or preannealed siRNA oligonucleotides for TRAIL-R1 or TRAIL-R2 (30 nM, Ambion), with the sequence and validity described (Ren et al, 2004 Mol. Biol. Cell vol 15 pp 5064-5074). After 40 h of transfection the cells were collected and total TRAIL-R1 or TRAIL-R2 levels assessed. […]

Ramos cells [4] = assay: Caspase-8 and -3 processing by Western blot in Ramos cells; assay type: cell-based; conditions: FIG. 1D
Method: as §2, §1, §3

Jurkat cells [5] = assay: Apoptosis by phosphatidylserine (PS) externalization in Jurkat cells; assay type: cell-based; conditions: for % PS+ cells, Jurkat: 4 h exposure, 500 ng ml^−, Mean ± SEM of at least three determinations; for ability to induce apoptosis in Jurkat cells (in words): PS externalization, compared with wt TRAIL
Method: as §2, with “determinations. […]” for “determinations.”
as §1
Ramos and Jurkat T cells (clone E6-1) were cultured as described (MacFarlane et al, 2005 ibid.). The breast tumour cell line, MCF-7 (clone F43) was cultured as described previously (MacFarlane et al., 2000 J. Cell Biol. 148, 1239-1254). Cells were cultured for either 4 h (Ramos and Jurkat) or 6 h (MCF-7) with His-TRAIL (MacFarlane et al, 1997 J Biol Chem 272, 25417-25420), HGS-ETR1 or HGS-ETR2 (Human Genome Sciences), or a mutant form of His-TRAIL (MacFarlane et al, 2005 ibid.). Samples were analyzed for apoptosis, Western blotting, or TRAIL DISC activation as described (MacFarlane et al, 2005 ibid.; MacFarlane et al. 2002 Oncogene 21, 6809-6818). Mutants of His-TRAIL (residues 95-281) were generated using the Quik-Change site-directed mutagenesis kit (Stratagene, Calif.), confirmed by DNA sequencing, expressed in E. coli and purified as described (MacFarlane et al, 1997 ibid.). For siRNA targeting of TRAIL-R1/-R2, MCF-7 cells were seeded into six-well plates immediately prior to effectene-mediated RNAi transfection with either a negative control siRNA (30 nM, Ambion, #4611), or preannealed siRNA oligonucleotides for TRAIL-R1 or TRAIL-R2 (30 nM, Ambion), with the sequence and validity described (Ren et al, 2004 Mol. Biol. Cell vol 15 pp 5064-5074). After 40 h of transfection the cells were collected and total TRAIL-R1 or TRAIL-R2 levels assessed. Where indicated, RNAi transfected MCF-7 cells were either left untreated or exposed to wt-TRAIL and apoptosis assessed by the extent of Bax activation, determined using the conformation specific Bax MAb, clone 3 (Dewson et al, 2003 Oncogene vol 22 pp 2643-54).

[6] = test system: TRAIL DISC in Ramos cells; assay: DISC analysis with biotinylated TRAIL in Ramos cells; assay type: cell-based; conditions: biotinylated ligand 500 ng ml^−1, 30 min
Method: as §4, §5

| Molecule | apoptosis, depsipeptide alone (primary MCL cells; depsipeptide 5 nM 16 h) | processing of caspases-8 and -3 (Jurkat cells [1]) | DISC formation: receptor bound, FADD and caspase-8 recruitment [2] | sensitization of CLL cells to induced apoptosis by depsipeptide (primary CLL cells) | % PS+ cells, Ramos (Ramos cells [3]) | ability to induce apoptosis in Ramos cells (in words) (Ramos cells [3]) | processing of caspase-8 and caspase-3 (Ramos cells [4]) | inhibition of induced apoptosis by TRAIL-R1 blocking Ab (Jurkat cells [5]; 30 min pre-incubation with Ab (5 μg ml^−1)) | % PS+ cells, Jurkat (Jurkat cells [5]) | ability to induce apoptosis in Jurkat cells (in words) (Jurkat cells [5]) | DISC formation: receptor bound, FADD and caspase-8 recruitment [6] | apoptosis, ligand alone (primary MCL cells; no depsipeptide) |
| --- | --- | --- | --- | --- | --- | --- | --- | --- | --- | --- | --- | --- |
| C/C=C1\NC(=O)[C@H]2CSSCC/C=C/[C@H](CC(=O)N[C@H](C(C)C)C(=O)N2)OC(=O)[C@H](C(C)C)NC1=O [depsipeptide, reference compound] | 35.4±5% |  |  |  |  |  |  |  |  |  |  |  |
| TRAIL.R2-6: His-TRAIL (95-281) with 189Gln, 191Lys, 193Arg, 264Arg, 266Leu, 267Gln; TRAIL-R2 selective mutant (protein, biotin (site not stated) in the DISC analysis only; not biotinylated in the apoptosis assays) TSEETISTVQEKQQNISPLVRERGPQRVAAHITGTRGRSNTLSSPNSKNEKALGRKINSWESSRSGHSFLSNLHLRNGELVIHEKGFYYIYSQTQFKFREEIKENTKNDKQMVQYIYKYTSYPDPILLMKSARNSCWSKDAEYGLYSIYQGGIFELKENDRIFVSVTNERLLQMDHEASFFGAFLVG |  | most potent | bound TRAIL-R2 extensively in the DISC | lack of activity and not | 9.4 ± 1.6% | not in Ramos cells | not | not | 58.4 ± 11.6% | potently induced apoptosis | failed to recruit FADD or caspase-8 to the DISC |  |
| TRAIL.R1-6: His-TRAIL (95-281) with 189Ala, 193Ser, 199Val, 201Arg, 213Trp, 215Asp; proposed TRAIL-R1 selective mutant of Kelley et al. (protein, biotin (site not stated) in the DISC analysis only; not biotinylated in the apoptosis assays) TSEETISTVQEKQQNISPLVRERGPQRVAAHITGTRGRSNTLSSPNSKNEKALGRKINSWESSRSGHSFLSNLHLRNGELVIHEKGFYYIYSQTAFRFSEEIKEVTRNDKQMVQYIYKWTDYPDPILLMKSARNSCWSKDAEYGLYSIYQGGIFELKENDRIFVSVTNEHLIDMDHEASFFGAFLVG |  |  | bound neither TRAIL-R1 nor -R2 |  | 13.7 ± 1.3% | largely inactive |  |  | 6.4 ± 0.8% | inactive | failed to recruit FADD or caspase-8 to the DISC |  |
| wild type: His-tagged human recombinant TRAIL residues 95-281, wild type sequence (protein, biotin (site not stated) in the DISC analysis only; not biotinylated in the apoptosis assays) TSEETISTVQEKQQNISPLVRERGPQRVAAHITGTRGRSNTLSSPNSKNEKALGRKINSWESSRSGHSFLSNLHLRNGELVIHEKGFYYIYSQTYFRFQEEIKENTKNDKQMVQYIYKYTSYPDPILLMKSARNSCWSKDAEYGLYSIYQGGIFELKENDRIFVSVTNEHLIDMDHEASFFGAFLVG |  | most potent | bound TRAIL-R2 extensively in the DISC | sensitized CLL cells | 41.8 ± 5.2% |  | induced the processing |  |  |  | bound both TRAIL-R1 and -R2, and recruited FADD and caspase-8 | 25.5±3.8% |
